# According to the DeepSol protein solubility set:
# Test: soluble on expression in E. coli; label from the status in PepcDB or PDB records
row,Sequence,soluble on expression in E. coli
1,MTARYIAIDWGSTNLRAWLYQGDHCLESRQSEAGVTRLNGKSPAAVLAEVTTDWREENTPVVMAGMVGSNVGWKVAPYLSVPARFSSIGEQLTSVGDNIWIIPGLCVSHDDNHNVMRGEETQLIGARALAPSSLYVMPGTHCKWVQADSQQINDFRTVMTGELHHLLLNHSLIGAGLPPQENSADAFAAGLERGLNAPAILPQLFEVRASHVLGTLPREQVSEFLSGLLIGAEVASMRDYVTHQHAITLVAGTSLTARYQQAFQAMGCDVAAVAGDTAFQAGIRSIAHAVAN,soluble
2,MTATASDDEAVTALALSAAKGNGRALEAFIKATQQDVWRFVAYLSDVGSADDLTQETFLRAIGAIPRFSARSSARTWLLAIARHVVADHIRHVRSRPRTTRGARPEHLIDGD,soluble
3,MTATATEGAKPPFVSRSVLVTGGNRGIGLAIAQRLAADGHKVAVTHRGSGAPKGLFGVEVDVTDSDAVDRAFTAVEEHQGPVEVLVSNAGLSADAFLMRMTEEKFEKVINANLTGAFRVAQRASRSMQRNKFGRMIFIGSVSGLWGIGNQANYAASKAGVIGMARSIARELSKANVTANVVAPGYIDTDMTRALDERIQQGALQFIPAKRVGTPAEVAGVVSFLASEDASYISGAVIPVDGGMGMGH,soluble
4,MTATLDDARAALDRIADPASGQGLVKAGLVQGLVVRNGRAGFMLEVPASVVASYAPVREAAEKALAALPGVEQAQVVLTAQAAEGATRVRKGAKISEDPQARMVPPPEAEKPQHVRHVIAVASGKGGVGKSTVSTNLAVAFAKMGLRVGLLDADIYGPSAPKMMGVDGDPLFENEKLQPLEAHGVKLMSIGFIVDEGKAMIWRGPMASSAVRQMIHDVAWGSEAQPLDVLVVDLPPGTGDVQLTLVQKLRIDGAVLVTTPQEIALIDARRAAAMFEKTATPILGLIENMAFFADPSTGAPIPIFGEGGGVAEAARLNVPLLGRVPIEIAVRLGGDQGVPAVIGEPKGQAAEVFIGAAKVLWKSVSHLEHHHHHH,soluble
5,MTATNKQVILKDYVSGFPTESDFDFTTTTVELRVPEGTNSVLVKNLYLSCDPYMRIRMGKPDPSTAALAQAYTPGQPIQGYGVSRIIESGHPDYKKGDLLWGIVAWEEYSVITPMTHAHFKIQHTDVPLSYYTGLLGMPGMTAYAGFYEVCSPKEGETVYVSAASGAVGQLVGQLAKMMGCYVVGSAGSKEKVDLLKTKFGFDDAFNYKEESDLTAALKRCFPNGIDIYFENVGGKMLDAVLVNMNMHGRIAVCGMISQYNLENQEGVHNLSNIIYKRIRIQGFVVSDFYDKYSKFLEFVLPHIREGKITYVEDVADGLEKAPEALVGLFHGKNVGKQVVVVARE,soluble
6,MTDAGSSFCPECGDPVDSVGGDGATRREQSLCDSCYFAAFDLVDAPDTIEVMVCARCGAVHRGNRWVDIGADDYVDVAVAETTEALGVHLEAEDVDWEVRPEKLDDNTVRMHATFTGVVRDTHRTEQVAVTVKVSRQTCQRCGRIAGESYASTVQVRAVGRDPTSEETDRAAELAHRIVADMEATGDREAFVTEIGDAESGTDIKLSTTKIGLKLARKLVEEFGGDFEDHETLITEDDDGNEVYRVTYAVRLPEFVPGDVVDIAADDGGPVLVQSNHGNLKGVRVTTGEPYEASFEDGDSPDARKLGAVADATEATVVTVEDDAAIQILDPDTYEAQTVARPDYVDPDASTVPALKSRAGLHVLPDALEHHHHHH,soluble
7,MTDALGELEADVRADLAMIAHPGAAWLEPKIGPDGKPALDVLVVGAGQSGIAIGFGLMRSRVSNILLLDKAEEGKEGPWLTYARMPTLRSPKDYTGPDLDIPSLTYQSWHEARFGKQSWQELGLIERGHWAEYLLWLRRTVGLPVRNACELLEIAPASDGLLTARVKRAGEVETLYARKIVLATGQEGMGGWMIPEPLRHLPSGSVATVADDIDFEKLRGKRVAVIGAGASAFDNAATALEAGAAEVHLLCRRTQIQVIQPYRWLTFRGFLRHLSDLDDAWRWRFMRTILEMREGFPQATYDRCARHANFTLHEGAPVEAARETGKGVELQTPRGAIPADFVICGTGIDMSFAGRGELAAFAGNIATWADRYQPPSSERNERLGRFPYLADDYAFTERVPGETPWISDIHLFAIASTMSFGPSGSSINAMTTAVPKLVHGLTRGLFRADIARHWASLSAYDVPQAVVTRPARKTGELEHHHHHH,soluble
8,MTDFQKQFFARLNIEEKQKVSFEDLSNIMYAMAQTVPFENLNVLEKNFKEISQENLKEKILVNNRGGLCYELNPTMYYFLKDAGFDVYLVSGTVYNAANSIWAVDSGHIATILKHHNELYLIEVGFGSYLPLAPVPFSGEVVQSVTGDYRIRKEMTEKGNYMLEMRKNDEFLDQSSTDDWTLGYAFYIEEVDEKKQMQHKKLLLNTMAHHLTKYLLL,not soluble
9,MTDGSMDIDAMLEGGLEMAKNDRSQSRQRSPARSNRSRSRSKDRKSSSRRSRSRSRDRRGDRGDRRRSRSRSKDRRTTRRRSPSRERRRSRSRDRGAPRRRSRTRSRDRRRSPPRRRDRRTPPRRSPGRRSPPRSRLPGPERRDVMPFNPRHSPPKNAKLELTAEERDQRTLLIMQIARDTRPRDLEEFFSAVGAVRDVRIITDSRTGRSKGICYVEFWDEESVPLGLALNGQRLMGAPLQIQRTCAERNRAANSSVASTLGFVAPGNKGPTHVLVENLHPKIDEKMIRDIFESFGRIEKIDLEVDSNRENRGFATITFRNADDAQKSCEQLNNFELAGRCIRLSIKQESQAPAVKKEEASIHQRSLDDVGDRQGFSLGAGGRQQLMAKLAQGTGSGMELTASAQMAAQHAGHSQIPSIATQCFLLSNMFDPSKETEPAWDHDIREDVIEQCLAHGGALHVFVDKGSEQGNVYVKCPSIVIAHQAVSALHGRWFSGKVITANYVPVNSYHDLFPDAVHARIVLTTRGAAPVVPIVPMVPVVPPQGIANGYGAYGMMAPAHGAPPPPPPQQQGQYGGYGRY,not soluble
10,MTDHNLLPEPKKILWRVSELNRNARVILEQTFPLLWVSGEISNLKRYPSGHWYFSLKDDSAQVRCVMFRHKNLYLDWIPQEGMQVEAQALVTLYEARGEFQLTVEQLRRAGLGALFEAFERLKARLQQEGLFSPEYKQPLPRFPRQIGIITSPNTAALRDVLTTLQLRLPSIPVVIYPAPVQGEGSAAAITTALHTAAVRGECDVLILCRGGGSIEDLWAFNEEIVARAIAACPIPIVTGIGHETDFTIADFVADARAPTPTGAAQLASPDRQAILHRLQYWLHRLQQTMERHIERRMQATDLLAHRLIHPGERIRHQQMHLLQLRGRLQNAWNRQVEIRTWRIEETGRRIHSAKPDIQAGIRHQQELAARLQRAMAHRLENLQFKLRQQQQHLIHLDPKAVLARGYSIAYTARGDILHDSRQTRAGDNVRLVFASGWAKADITETGE,not soluble
11,MTDILIDNTATETVRTLIRAFPLVPVSQPPEQGSYLLAEHDTVSLRLVGEKSSVIVDFASGAAQYRRTKGGGELIAKAVNHTAHPTVWDATAGLGRDSFVLASLGLAVTAFEQHPAVACLLSDGIRRALLNPETQNTAAHINLHFGNAAEQMPALVQTQGKPDIVYLDPMYPERRKSAAVKKEMTYFHRLVGEAQDEAALLHTARQTAKKRVVVKRPRLGEHLAGQDPAYQYTGKSTRFDVYLPYGTDKG,not soluble
12,MTDKQYSLDDIRLRLNELDDQLLNLLSERRKMSIEVAKSKVETAKPVRDPAREQQLLVKLINAGKEKYQLDPQYITKIFHTIIEDSVLLQQSYLQNLANPQSRKPLARVAFLGAKGSYSHLATREYFSRKNTELIELNCDHFKEVARTVESGHADYGVLPIENTSSGSINEVYDLLQHTTLYIVGELTQPIEHCLVATQEIRLEDLKVLYSHPQPHQQCSEFLSRLKGVKLESCASTADAMKKVQELNRADVAAIGNSASGKLYGLQPIQGNIANQTENHTRFIVVARKPVDVSPQIPAKTTLIMSTSQEAGSLVSTLLVLQRYGINMTKLESRPIMGNPWEEMFYVDLEAHIDSDEMQQALAELTQLTRHLKVLGCYPSENVKPTQVKFI,not soluble
13,MTDLQVFEMNPQLNFPISDKTIYQMGFNSSAAQPSAANYVTESNSLTNHLQILDLLNPQTSSGSDDKKRQFFADLMTPHYEKQAEIEKKIDDLSEVVHQFIQSQQSLNKLILEKCLGRIPSPRMTSPHQPEDNSIDDMDPPVQEEIEEKIENDTFGQNEVTVNQQPINNPMPVYPVPISHEPANLHSPIRNRSISPEKMDTTGNSGAGMSVRDFLKNTMTVQKADEKILEEELERERDEAAQTVRYNKFRVRNRPKKYKRSAVTFTSSLEAATSSSSSTIPHQDQGPTFSTHSTIGNSSDTSQLMEQLDQSQNDSIDIEENVYQPIVVPCVQRAPELDLTLMQPVFSTASSYVLNSSALDPTTHQAQSSLSALTDSKFQTDPNNLWKAVDGVSQLLVDAPSLLESDLRSFTDHSHHSSFLPFVANHEPLHRSAFLPPQYHKDRRIHQQMDSHLSDTLRNL,not soluble
14,MTDMKVLKMEVMRYNPERDSEPHFETFEVPYDEQTSLLDALGYIKDNLAPDLSYRWSCRMAICGSCGMMVNKVPKLACKTFLREYTAGMKVEALGNFPIERDLVVDMTHFIESLEAIKPYIIGNERLPKDGPNKQTPAQMAKYHQFSGCINCGLCYAACPQFGLNPEFIGPAAITLAHRYNLDNRDHGKKERMPQLNGKNGVWSCTFVGYCSEVCPKHVDPAAAIQQGKIDSAKDFMIAMLKPQ,not soluble
15,MTDNQSKSLELILTDSDDAHMLLGTHDKHIKFLEENTHVTINSRGEVIQLIGESSEVELVASVLRALQTLIQRGIKVHTPDVVSALKMAKAGNLEAFIAMYEEEIMKDHHGRAIRIKNVGQKKYIDAVKTHDVIFGVGPAGTGKTFLAVVMAVAALKKGEVQKIILTRPAVEAGESLGFLPGDLKEKVDPYLRPVYDALYQIFGMDHTNRLMERGVIEIAPLAYMRGRTLDDAFVILDEAQNTTVAQMKMFLTRLGFSSKMIVNGDTSQIDLPRGVTSGLVNAERTLKDIEKIAFVNFEASDVVRHPVVAQIIQAYEKEQQKHS,not soluble
16,MTDRLIIQGGKKLSGTLQVDGAKNSAVALIPAAILAESEVVLEGLPDISDVYTLYDILEELGGSVRYDNKTAIIDPTDMLSMPLPSGNVKKLRASYYLMGAMLGRFKKAVIGLPGGCYLGPRPIDQHIKGFEALGAKVTNEQGAIYLRADELKGARIYLDVVSVGATINIMLAAVRAKGKTVIENAAKEPEIIDVATLLTNMGAIIKGAGTDTIRITGVDHLHGCHHTIIPDRIEAGTFMVLAAASGKGIRIENVIPTHLEGIIAKLTEMGVPMDIEEDSIFIGEVENIKKVDIKTYAYPGFPTDLQQPLTALLTRAEGSSVITDTIYPSRFKHIAELERMGGKFKLEGRSAVISGPAKLQGSKVTATDLRAGAALVIAGLLAEGRTEIHGVEHIERGYSKIIEKLSAIGADITRSSTAETNI,not soluble
17,MTDTAEKYEAVVVGCGPGGAAAAATLARNGVETLVLERGVDAGSKNVSGGLIYAEESAPYTIDGLFPDFREEAAERPVTENLIHNIAGDRVKSFDIGDLHHHDTAWADAVLRRKMDSWLAQQVHERTRETGGGLLTEVHVTGLLRERGEIVGVTTEELDPIKADIIVAADGVNSELARDAGLMDWDEPEEWFQGVKAVVDMEPEVINDRFDVASDDGAAHLFSGDLFDGVRGGGFLYTNESSLSIGTVFHLDSIAEERAEPHELLDSLLTHPLMAQWLGDEYDEREYSAKLVPDSKKAAHPSPHEDRLVLVGDAAGQMQAQGPIIKGMNHAVTAGALAAEAFADARARGDPSQAGKLYEKKLHDEGVMDKLRPTGYRVFGQLGELGPVDNLSNAIAESAVGRFGVRAAAGLLERAYSSPRLVSMIPDTKLPYVTLPTVIAEELGEPVTDENTVSPPDLGDRIGDLTYDVGDPHIELVDKSFEASGTAVTACPVSAEDFGGGCYRDEMVQTNGSEEHLVSLDTQPCVECGTCAIVADTEWEHPAGGKGVEFNQGLEHHHHHH,not soluble
18,MTDTIKIYHNPRCSKSRDTLNLLKSNGVEPEVVLYLDTPADAATVRELLRMLGMSSARELMRQKEDLYKTLHLADSELSEEALIQALVEHPKLMERPIVVANGQARIGRPPEQVLDILG,not soluble
